Data reported in patent US20030044789A1, “Identification and quantification of a protein carrying an N-terminal polyhistidine affinity tag” (priority 2000, published 2003).

Tested on: Penta-His antibody
Assay: Competition study with HisTagged proteins (HisTag FPIA)
Format: binding
Settings: 1-2 nM fluor-AHHHHHHG, 10 nM Penta-His antibody, approx. 60 min at room temperature; read-out: approximate IC50 (concentration of competitor required to decrease FP signal by 50%)
Protocol: Purified N-terminal HisTagged proteins were serially diluted into PBS +0.01% NP-40 in a multiwell plates. 1-2 nM fluorescein labeled peptide (fluor-AHHHHHHG) and 10 nM of Penta-His antibody were then added to each reaction to a final volume of 50-100 ul. After approximately 60 min incubation at room temperature to insure equilibrium binding, the polarization was measured on a Tecan Polarian multiwell instrument.
Protein Kinase A (PKA) is a serine/threonine kinase, ZAP-70 is a tyrosine kinase, and the Estrogen Receptor Ligand Binding Domain (ER-LBD) is comprised of the C-terminal 300 amino acids of ERα; all three proteins were highly purified and active.

B1: ZAP-70: recombinant human tyrosine kinase with N-terminal six-histidine fusion (protein, UniProt P43403 1-619, looked up)
Tyrosine-protein kinase ZAP-70: MPDPAAHLPFFYGSISRAEAEEHLKLAGMADGLFLLRQCLRSLGGYVLSLVHDVRFHHFPIERQLNGTYAIAGGKAHCGPAELCEFYSRDPDGLPCNLRKPCNRPSGLEPQPGVFDCLRDAMVRDYVRQTWKLEGEALEQAIISQAPQVEKLIATTAHERMPWYHSSLTREEAERKLYSGAQTDGKFLLRPRKEQGTYALSLIYGKTVYHYLISQDKAGKYCIPEGTKFDTLWQLVEYLKLKADGLIYCLKEACPNSSASNASGAAAPTLPAHPSTLTHPQRRIDTLNSDGYTPEPARITSPDKPRPMPMDTSVYESPYSDPEELKDKKLFLKRDNLLIADIELGCGNFGSVRQGVYRMRKKQIDVAIKVLKQGTEKADTEEMMREAQIMHQLDNPYIVRLIGVCQAEALMLVMEMAGGGPLHKFLVGKREEIPVSNVAELLHQVSMGMKYLEEKNFVHRDLAARNVLLVNRHYAKISDFGLSKALGADDSYYTARSAGKWPLKWYAPECINFRKFSSRSDVWSYGVTMWEALSYGQKPYKKMKGPEVMAFIEQGKRMECPPECPPELYALMSDCWIYKWEDRPDFLTVEQRMRACYYSLASKVEGPPGSTQKAEAACA
modifications: N-terminal polyhistidine tag
IC50: ~36 nM
